The values that follow come from the MegaScale stability set (Tsuboyama et al. 2023).

B1: EHEE_rd4_0726 (parent)
chain: DIEITTNGEEDAKRVIKELQKRNLEYHIEVHGNQWVIKVR

The variants in this series derive from B1. Description: folding stability dG (cDNA display proteolysis); higher = more stable. Conditions: PBS, room temperature.
Regarding DIEQTTNGEEDAKRVIKELQKRNLEYHIEVHGNQWVIKVR [I4Q], the “folding stability dG” value is 0.094 kcal/mol. Under DIEMTTNGEEDAKRVIKELQKRNLEYHIEVHGNQWVIKVR [I4M] stands 1.23 kcal/mol; under DIEYTTNGEEDAKRVIKELQKRNLEYHIEVHGNQWVIKVR [I4Y], 2.15 kcal/mol; under DIELTTNGEEDAKRVIKELQKRNLEYHIEVHGNQWVIKVR [I4L], 1.66 kcal/mol. The result for DIEATTNGEEDAKRVIKELQKRNLEYHIEVHGNQWVIKVR [I4A] reads 0.165 kcal/mol; that for DIEETTNGEEDAKRVIKELQKRNLEYHIEVHGNQWVIKVR [I4E], 0.017 kcal/mol. In the case of DIEGTTNGEEDAKRVIKELQKRNLEYHIEVHGNQWVIKVR [I4G], the “folding stability dG” value was -0.292 kcal/mol. As for DIEVTTNGEEDAKRVIKELQKRNLEYHIEVHGNQWVIKVR [I4V], the “folding stability dG” value turned out to be 1.57 kcal/mol. As for DIERTTNGEEDAKRVIKELQKRNLEYHIEVHGNQWVIKVR [I4R], the “folding stability dG” value was determined as 0.4 kcal/mol. With DIEKTTNGEEDAKRVIKELQKRNLEYHIEVHGNQWVIKVR [I4K], the “folding stability dG” value was 0.22 kcal/mol. Take DIETTTNGEEDAKRVIKELQKRNLEYHIEVHGNQWVIKVR [I4T]: the “folding stability dG” value worked out at 0.528 kcal/mol. For the variant DIEPTTNGEEDAKRVIKELQKRNLEYHIEVHGNQWVIKVR [I4P], the “folding stability dG” value was determined as 0.107 kcal/mol. DIEDTTNGEEDAKRVIKELQKRNLEYHIEVHGNQWVIKVR [I4D]: the “folding stability dG” value is -0.582 kcal/mol. With DIENTTNGEEDAKRVIKELQKRNLEYHIEVHGNQWVIKVR [I4N], the “folding stability dG” value is -0.395 kcal/mol. With DIESTTNGEEDAKRVIKELQKRNLEYHIEVHGNQWVIKVR [I4S], the “folding stability dG” value amounted to 0.002 kcal/mol.

As for DIEHTTNGEEDAKRVIKELQKRNLEYHIEVHGNQWVIKVR [I4H], the “folding stability dG” value was 0.697 kcal/mol.

As for DIEFTTNGEEDAKRVIKELQKRNLEYHIEVHGNQWVIKVR [I4F], the “folding stability dG” value turned out to be 2.12 kcal/mol. The result for DIEWTTNGEEDAKRVIKELQKRNLEYHIEVHGNQWVIKVR [I4W] reads 1.99 kcal/mol; that for DIEIRTNGEEDAKRVIKELQKRNLEYHIEVHGNQWVIKVR [T5R], 2.92 kcal/mol. The result for DIEIFTNGEEDAKRVIKELQKRNLEYHIEVHGNQWVIKVR [T5F] reads 2.77 kcal/mol; that for DIEIGTNGEEDAKRVIKELQKRNLEYHIEVHGNQWVIKVR [T5G], 1.08 kcal/mol. Take DIEIETNGEEDAKRVIKELQKRNLEYHIEVHGNQWVIKVR [T5E]: the “folding stability dG” value was 1.66 kcal/mol. For DIEIMTNGEEDAKRVIKELQKRNLEYHIEVHGNQWVIKVR [T5M], the “folding stability dG” value was determined as 2.39 kcal/mol.

As to DIEIKTNGEEDAKRVIKELQKRNLEYHIEVHGNQWVIKVR [T5K], the “folding stability dG” value amounted to 2.32 kcal/mol. Under DIEICTNGEEDAKRVIKELQKRNLEYHIEVHGNQWVIKVR [T5C] stands 2.86 kcal/mol; under DIEIYTNGEEDAKRVIKELQKRNLEYHIEVHGNQWVIKVR [T5Y], 2.91 kcal/mol; under DIEIPTNGEEDAKRVIKELQKRNLEYHIEVHGNQWVIKVR [T5P], 1.59 kcal/mol. On to DIEILTNGEEDAKRVIKELQKRNLEYHIEVHGNQWVIKVR [T5L], for which the “folding stability dG” value worked out at 2.49 kcal/mol. In the case of DIEIVTNGEEDAKRVIKELQKRNLEYHIEVHGNQWVIKVR [T5V], the “folding stability dG” value turned out to be 3.03 kcal/mol. Under DIEIATNGEEDAKRVIKELQKRNLEYHIEVHGNQWVIKVR [T5A] stands 1.84 kcal/mol; under DIEIITNGEEDAKRVIKELQKRNLEYHIEVHGNQWVIKVR [T5I], 3.17 kcal/mol. Regarding DIEISTNGEEDAKRVIKELQKRNLEYHIEVHGNQWVIKVR [T5S], the “folding stability dG” value amounted to 1.96 kcal/mol.

Take DIEIWTNGEEDAKRVIKELQKRNLEYHIEVHGNQWVIKVR [T5W]: the “folding stability dG” value is 3.48 kcal/mol. Under DIEIHTNGEEDAKRVIKELQKRNLEYHIEVHGNQWVIKVR [T5H] stands 2.61 kcal/mol; under DIEIDTNGEEDAKRVIKELQKRNLEYHIEVHGNQWVIKVR [T5D], 1 kcal/mol.

With DIEIQTNGEEDAKRVIKELQKRNLEYHIEVHGNQWVIKVR [T5Q], the “folding stability dG” value worked out at 2 kcal/mol.

In the case of DIEINTNGEEDAKRVIKELQKRNLEYHIEVHGNQWVIKVR [T5N], the “folding stability dG” value was determined as 1.75 kcal/mol.

As for DITITTNGEEDAKRVIKELQKRNLEYHIEVHGNQWVIKVR [E3T], the “folding stability dG” value stood at 3.12 kcal/mol. Turning to DIWITTNGEEDAKRVIKELQKRNLEYHIEVHGNQWVIKVR [E3W], the “folding stability dG” value was 3.35 kcal/mol. For DIPITTNGEEDAKRVIKELQKRNLEYHIEVHGNQWVIKVR [E3P], the “folding stability dG” value stood at 0.973 kcal/mol. Regarding DIRITTNGEEDAKRVIKELQKRNLEYHIEVHGNQWVIKVR [E3R], the “folding stability dG” value was 2.34 kcal/mol. On to DIKITTNGEEDAKRVIKELQKRNLEYHIEVHGNQWVIKVR [E3K], for which the “folding stability dG” value was 2.18 kcal/mol.

Consider DIYITTNGEEDAKRVIKELQKRNLEYHIEVHGNQWVIKVR [E3Y], for which the “folding stability dG” value was 3.11 kcal/mol. Take DINITTNGEEDAKRVIKELQKRNLEYHIEVHGNQWVIKVR [E3N]: the “folding stability dG” value turned out to be 1.87 kcal/mol. In the case of DIMITTNGEEDAKRVIKELQKRNLEYHIEVHGNQWVIKVR [E3M], the “folding stability dG” value was 2.74 kcal/mol. Take DIIITTNGEEDAKRVIKELQKRNLEYHIEVHGNQWVIKVR [E3I]: the “folding stability dG” value was found to be 3.45 kcal/mol. Consider DILITTNGEEDAKRVIKELQKRNLEYHIEVHGNQWVIKVR [E3L], for which the “folding stability dG” value worked out at 2.76 kcal/mol. On to DIVITTNGEEDAKRVIKELQKRNLEYHIEVHGNQWVIKVR [E3V], for which the “folding stability dG” value was 3.33 kcal/mol.

As for DIQITTNGEEDAKRVIKELQKRNLEYHIEVHGNQWVIKVR [E3Q], the “folding stability dG” value is 2.37 kcal/mol. In the case of DISITTNGEEDAKRVIKELQKRNLEYHIEVHGNQWVIKVR [E3S], the “folding stability dG” value is 2.5 kcal/mol. The result for DIEITMNGEEDAKRVIKELQKRNLEYHIEVHGNQWVIKVR [T6M] reads 2.38 kcal/mol; that for DIEITPNGEEDAKRVIKELQKRNLEYHIEVHGNQWVIKVR [T6P], 1.51 kcal/mol. On to DIEITNNGEEDAKRVIKELQKRNLEYHIEVHGNQWVIKVR [T6N], for which the “folding stability dG” value was 0.494 kcal/mol. Take DIEITHNGEEDAKRVIKELQKRNLEYHIEVHGNQWVIKVR [T6H]: the “folding stability dG” value amounted to 0.768 kcal/mol.

As to DIEITKNGEEDAKRVIKELQKRNLEYHIEVHGNQWVIKVR [T6K], the “folding stability dG” value is 1.22 kcal/mol. Take DIEITDNGEEDAKRVIKELQKRNLEYHIEVHGNQWVIKVR [T6D]: the “folding stability dG” value was 0.026 kcal/mol. Consider DIEITGNGEEDAKRVIKELQKRNLEYHIEVHGNQWVIKVR [T6G], for which the “folding stability dG” value is 2.65 kcal/mol. For DIEITFNGEEDAKRVIKELQKRNLEYHIEVHGNQWVIKVR [T6F], the “folding stability dG” value turned out to be 2.32 kcal/mol. Regarding DIEITENGEEDAKRVIKELQKRNLEYHIEVHGNQWVIKVR [T6E], the “folding stability dG” value was determined as 0.908 kcal/mol. With DIEITLNGEEDAKRVIKELQKRNLEYHIEVHGNQWVIKVR [T6L], the “folding stability dG” value turned out to be 2.84 kcal/mol. With DIEITANGEEDAKRVIKELQKRNLEYHIEVHGNQWVIKVR [T6A], the “folding stability dG” value is 2.62 kcal/mol. Regarding DIEITINGEEDAKRVIKELQKRNLEYHIEVHGNQWVIKVR [T6I], the “folding stability dG” value stood at 3.08 kcal/mol. Consider DIEITQNGEEDAKRVIKELQKRNLEYHIEVHGNQWVIKVR [T6Q], for which the “folding stability dG” value was found to be 0.841 kcal/mol.
